Target: T1, HIV-1 Env on the cell surface (HIV-1, strain BG505 (clade A), wild type, UniProt Q2N0S6)
T1 construct: also called cell-surface HIV-1 Env; source: 293T, transfected, on cells
Assay: flow cytometry on cells
Details: one partner purified

B1: 1C2 (rabbit monoclonal antibody, IgG) (antibody, V domains shown)
VH: QSLEESGGDLVKPGASLTLTCTASGFSFGWNDYMSWVRQAPGKGLEWIGCIYAGSTRSTYYANWAKGRLTISKTSSTAVTLQMTSLTAADTATYFCARGAVTYDGLGGAYLKHFNLWGPGTLVTVSS
VL: AIKMTQTPSSVSAAVGGTVTVNCRASEDIESYLAWYQQKPGQPPKLLIYDTSKLASGVPSRFKGSGSGTQFALTISGVQCDDAATYYCLYGYISSDRIDFGFGGGTELVVK
notes: also called bNAb 1C2; vax-bNAb 1C2
B1: binds.
